For 20 molecules, Kd results are on record in patent US20260055205A1 (published 2026).

For orientation: Kd means the free concentration of one partner at which half of the binding sites on the other are occupied at equilibrium, for simple one-to-one binding.

The experiment addresses T1, human CD3 epsilon (human, UniProt P07766 23-126, limits assumed).
T1 construct: also called huCD3e
In words: Octet, crude lysate. The method, then: Pool 2 consisted of paTCE molecules each containing PSMA.262 and one of 64 CD3.23 mutation combination variants. Stability and affinity of the individually expressed molecules in the form of crude lysate was evaluated by Octet. […] The binding of these anti-CD3 molecules (CD3.227, CD3.228, CD3.229 and CD3.230) to human and cynomolgus CD3 was measured by Octet and the Tm was measured by Differential Scanning Fluorimetry. All variants were paired with PSMA.262 except for CD3.23 which was paired with PSMA.5.
On the technique in general: In BLI a coated tip is dipped into the sample, and binding shifts an interference pattern.

T1 sequence (P07766 23-126 limits assumed): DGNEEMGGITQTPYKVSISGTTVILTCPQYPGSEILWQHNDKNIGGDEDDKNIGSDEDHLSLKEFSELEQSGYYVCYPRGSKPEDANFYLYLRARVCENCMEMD

B1: CD3.201 (bispecific antibody, V domains shown)
VH: EVQLLESGGGIVQPGGSLRLSCAASGFTFNTYAMNWVRQAPGKGLEWVGRIRSKRNNYATYYADSVKGRFTISRDDSKNTVYLQMNSLKTEDTAVYYCVRHENFGNSYVSWFAHWGQGTLVTVSS
VL: ELVVTQEPSLTVSPGGTVTLTCRSSNGAVTSSNYANWVQQKPGQAPRGLIGGTNKRAPGTPARFSGSLLGGKAALTLSGVQPEDEAVYYCALWYPNLWVFGGGTKLTVL
notes: paTCE with PSMA.262; also called AC3632
Take B1: the dissociation constant (Kd) worked out at 8.6 nM.

B2: CD3.206 (bispecific antibody, V domains shown)
VH: EVQLVESGGGIVQPGGSLRLSCAASGFTFNTYAMNWVRQAPGKGLEWVGRIRSKYNDYATYYADSVKGRFTISRDDSKNTVYLQMNSLKTEDTAVYYCVRHENFGNSYVSWFAHWGQGTLVTVSS
VL: ELVVTQEPSLTVSPGGTVTLTCRSSNGAVTSSNYANWVQQKPGQAPRGLIGGTNKRAPGTPARFSGSLLGGKAALTLSGVQPEDEAVYYCALWYPNLWVFGGGTKLTVL
notes: paTCE with PSMA.262; also called AC3637
In the case of B2, the Kd turned out to be 10.3 nM.

B3: CD3.214 (bispecific antibody, V domains shown)
VH: EVQLVESGGGIVQPGGSLRLSCAASGFTFSTYAMNWVRQAPGKGLEWVGRIRSKYNDYATYYADSVKGRFTISRDDSKNTVYLQMNELKTEDTAVYYCVRHENFGNSYVSWFAHWGQGTLVTVSS
VL: ELVVTQEPSLTVSPGGTVTLTCRSSNGAVTSSNYANWVQQKPGQAPRGLIGGTNKRAPGTPARFSGSLLGGKAALTLSGVQPEDEAVYYCALWYPNLWVFGGGTKLTVL
notes: paTCE with PSMA.262; also called AC3645
For B3, the Kd was found to be 6.6 nM.

B4: CD3.218 (bispecific antibody, V domains shown)
VH: EVQLVESGGGIVQPGGSLRLSCAASGFTFSTYAMNWVRQAPGKGLEWVGRIRSKYNNYATTYADSVKGRFTISRDDSKNTVYLQMNSLKTEDTAVYYCVRHENFGNSYVSWFAHWGQGTLVTVSS
VL: ELVVTQEPSLTVSPGGTVTLTCRSSNGAVTSSNYANWVQQKPGQAPRGLIGGTNKRAPGTPARFSGSLLGGKAALTLSGVQPEDEAVYYCALWYPNLWVFGGGTKLTVL
notes: paTCE with PSMA.262; also called AC3649
For B4, the equilibrium dissociation constant (Kd) came out at 52.6 nM.

B5: CD3.216 (bispecific antibody, V domains shown)
VH: EVQLVESGGGIVQPGGSLRLSCAASGFTFSTYAMNWVRQAPGKGLEWVGRIRSKTNNYATYYADSVKGRFTISRDDSKNTVYLQMNSLKTEDTAVYYCVRHENFGNSYVSWFAHWGQGTLVTVSS
VL: ELVVTQEPSLTVSPGGTVTLTCRSSNGAVTSSNYANWVQQKPGQAPRGLIGGTNKRAPGTPARFSGSLLGGKAALTLSGVQPEDEAVYYCALWYPNLWVFGGGTKLTVL
notes: paTCE with PSMA.262; also called AC3647
B5: the Kd is 11.2 nM.

B6: CD3.213 (bispecific antibody, V domains shown)
VH: EVQLVESGGGIVQPGGSLRLSCAASGFTFNTYAMNWVRQAPGKGLEWVGRIRSKYNDYATYYADSVKGRFTISRDDSKNTVYLQMNELKTEDTAVYYCVRHENFGNSYVSWFAHWGQGTLVTVSS
VL: ELVVTQEPSLTVSPGGTVTLTCRSSNGAVTSSNYANWVQQKPGQAPRGLIGGTNKRAPGTPARFSGSLLGGKAALTLSGVQPEDEAVYYCALWYPNLWVFGGGTKLTVL
notes: paTCE with PSMA.262; also called AC3644
With B6, the Kd is 6.6 nM.

B7: CD3.204 (bispecific antibody, V domains shown)
VH: EVQLVESGGGIVQPGGSLRLSCAASGFTFNTYAMNWVRQAPGKGLEWVGRIRSKTNNYATYYADSVKGRFTISRDDSKNTVYLQMNSLKTEDTAVYYCVRHENFGNSYVSWFAHWGQGTLVTVSS
VL: ELVVTQEPSLTVSPGGTVTLTCRSSNGAVTSSNYANWVQQKPGQAPRGLIGGTNKRAPGTPARFSGSLLGGKAALTLSGVQPEDEAVYYCALWYPNLWVFGGGTKLTVL
notes: paTCE with PSMA.262; also called AC3635
In the case of B7, the Kd is 7.2 nM.

B8: CD3.217 (bispecific antibody, V domains shown)
VH: EVQLVESGGGIVQPGGSLRLSCAASGFTFSTYAMNWVRQAPGKGLEWVGRIRSKYNDYATYYADSVKGRFTISRDDSKNTVYLQMNSLKTEDTAVYYCVRHENFGNSYVSWFAHWGQGTLVTVSS
VL: ELVVTQEPSLTVSPGGTVTLTCRSSNGAVTSSNYANWVQQKPGQAPRGLIGGTNKRAPGTPARFSGSLLGGKAALTLSGVQPEDEAVYYCALWYPNLWVFGGGTKLTVL
notes: paTCE with PSMA.262; also called AC3648
Turning to B8, the equilibrium dissociation constant (Kd) worked out at 10.7 nM.

B9: CD3.211 (bispecific antibody, V domains shown)
VH: EVQLVESGGGIVQPGGSLRLSCAASGFTFNTYAMNWVRQAPGKGLEWVGRIRSKTNNYATYYADSVKGRFTISRDDSKNTVYLQMNELKTEDTAVYYCVRHENFGNSYVSWFAHWGQGTLVTVSS
VL: ELVVTQEPSLTVSPGGTVTLTCRSSNGAVTSSNYANWVQQKPGQAPRGLIGGTNKRAPGTPARFSGSLLGGKAALTLSGVQPEDEAVYYCALWYPNLWVFGGGTKLTVL
notes: paTCE with PSMA.262; also called AC3642
As to B9, the dissociation constant Kd worked out at 9.5 nM.

B10: CD3.208 (bispecific antibody, V domains shown)
VH: EVQLVESGGGIVQPGGSLRLSCAASGFTFNTYAMNWVRQAPGKGLEWVGRIRSKYNNYATTYADSVKGRFTISRDDSKNTVYLQMNSLKTEDTAVYYCVRHENFGNSYVSWFAHWGQGTLVTVSS
VL: ELVVTQEPSLTVSPGGTVTLTCRSSNGAVTSSNYANWVQQKPGQAPRGLIGGTNKRAPGTPARFSGSLLGGKAALTLSGVQPEDEAVYYCALWYPNLWVFGGGTKLTVL
notes: paTCE with PSMA.262; also called AC3639
As for B10, the dissociation constant Kd was determined as 16.8 nM.

B11: CD3.207 (bispecific antibody, V domains shown)
VH: EVQLLESGGGIVQPGGSLRLSCAASGFTFNTYAMNWVRQAPGKGLEWVGRIRSKYNNYATTYADSVKGRFTISRDDSKNTVYLQMNSLKTEDTAVYYCVRHENFGNSYVSWFAHWGQGTLVTVSS
VL: ELVVTQEPSLTVSPGGTVTLTCRSSNGAVTSSNYANWVQQKPGQAPRGLIGGTNKRAPGTPARFSGSLLGGKAALTLSGVQPEDEAVYYCALWYPNLWVFGGGTKLTVL
notes: paTCE with PSMA.262; also called AC3638
As for B11, the dissociation constant (Kd) worked out at 15.6 nM.

B12: CD3.212 (bispecific antibody, V domains shown)
VH: EVQLVESGGGIVQPGGSLRLSCAASGFTFSTYAMNWVRQAPGKGLEWVGRIRSKTNNYATYYADSVKGRFTISRDDSKNTVYLQMNELKTEDTAVYYCVRHENFGNSYVSWFAHWGQGTLVTVSS
VL: ELVVTQEPSLTVSPGGTVTLTCRSSNGAVTSSNYANWVQQKPGQAPRGLIGGTNKRAPGTPARFSGSLLGGKAALTLSGVQPEDEAVYYCALWYPNLWVFGGGTKLTVL
notes: paTCE with PSMA.262; also called AC3643
Regarding B12, the Kd was 35.6 nM.

B13: CD3.220 (bispecific antibody, V domains shown)
VH: EVQLVESGGGIVQPGGSLRLSCAASGFTFSTYAMNWVRQAPGKGLEWVGRIRTKRNNYATYYADSVKGRFTISRDDSKNTVYLQMNELKTEDTAVYYCVRHENFGNSYVSWFAHWGQGTLVTVSS
VL: ELVVTQEPSLTVSPGGTVTLTCRSSNGAVTSSNYANWVQQKPGQAPRGLIGGTNKRAPGTPARFSGSLLGGKAALTLSGVQPEDEAVYYCALWYPNLWVFGGGTKLTVL
notes: paTCE with PSMA.262; also called AC3651
In the case of B13, the Kd was 4.8 nM.

B14: CD3.205 (bispecific antibody, V domains shown)
VH: EVQLLESGGGIVQPGGSLRLSCAASGFTFNTYAMNWVRQAPGKGLEWVGRIRSKYNDYATYYADSVKGRFTISRDDSKNTVYLQMNSLKTEDTAVYYCVRHENFGNSYVSWFAHWGQGTLVTVSS
VL: ELVVTQEPSLTVSPGGTVTLTCRSSNGAVTSSNYANWVQQKPGQAPRGLIGGTNKRAPGTPARFSGSLLGGKAALTLSGVQPEDEAVYYCALWYPNLWVFGGGTKLTVL
notes: paTCE with PSMA.262; also called AC3636
On to B14, for which the dissociation constant Kd worked out at 7.2 nM.

B15: CD3.210 (bispecific antibody, V domains shown)
VH: EVQLVESGGGIVQPGGSLRLSCAASGFTFSTYAMNWVRQAPGKGLEWVGRIRSKRNNYATYYADSVKGRFTISRDDSKNTVYLQMNELKTEDTAVYYCVRHENFGNSYVSWFAHWGQGTLVTVSS
VL: ELVVTQEPSLTVSPGGTVTLTCRSSNGAVTSSNYANWVQQKPGQAPRGLIGGTNKRAPGTPARFSGSLLGGKAALTLSGVQPEDEAVYYCALWYPNLWVFGGGTKLTVL
notes: paTCE with PSMA.262; also called AC3641
On to B15, for which the Kd came to 5.7 nM.

B16: CD3.219 (bispecific antibody, V domains shown)
VH: EVQLVESGGGIVQPGGSLRLSCAASGFTFNTYAMNWVRQAPGKGLEWVGRIRTKRNNYATYYADSVKGRFTISRDDSKNTVYLQMNELKTEDTAVYYCVRHENFGNSYVSWFAHWGQGTLVTVSS
VL: ELVVTQEPSLTVSPGGTVTLTCRSSNGAVTSSNYANWVQQKPGQAPRGLIGGTNKRAPGTPARFSGSLLGGKAALTLSGVQPEDEAVYYCALWYPNLWVFGGGTKLTVL
notes: paTCE with PSMA.262; also called AC3650
Regarding B16, the Kd amounted to 4.7 nM.

B17: CD3.202 (bispecific antibody, V domains shown)
VH: EVQLVESGGGIVQPGGSLRLSCAASGFTFNTYAMNWVRQAPGKGLEWVGRIRSKRNNYATYYADSVKGRFTISRDDSKNTVYLQMNSLKTEDTAVYYCVRHENFGNSYVSWFAHWGQGTLVTVSS
VL: ELVVTQEPSLTVSPGGTVTLTCRSSNGAVTSSNYANWVQQKPGQAPRGLIGGTNKRAPGTPARFSGSLLGGKAALTLSGVQPEDEAVYYCALWYPNLWVFGGGTKLTVL
notes: paTCE with PSMA.262; also called AC3633
In the case of B17, the equilibrium dissociation constant (Kd) was 8.4 nM.

B18: CD3.215 (bispecific antibody, V domains shown)
VH: EVQLVESGGGIVQPGGSLRLSCAASGFTFSTYAMNWVRQAPGKGLEWVGRIRSKRNNYATYYADSVKGRFTISRDDSKNTVYLQMNSLKTEDTAVYYCVRHENFGNSYVSWFAHWGQGTLVTVSS
VL: ELVVTQEPSLTVSPGGTVTLTCRSSNGAVTSSNYANWVQQKPGQAPRGLIGGTNKRAPGTPARFSGSLLGGKAALTLSGVQPEDEAVYYCALWYPNLWVFGGGTKLTVL
notes: paTCE with PSMA.262; also called AC3646
As to B18, the dissociation constant (Kd) worked out at 9.7 nM.

B19: CD3.209 (bispecific antibody, V domains shown)
VH: EVQLVESGGGIVQPGGSLRLSCAASGFTFNTYAMNWVRQAPGKGLEWVGRIRSKRNNYATYYADSVKGRFTISRDDSKNTVYLQMNELKTEDTAVYYCVRHENFGNSYVSWFAHWGQGTLVTVSS
VL: ELVVTQEPSLTVSPGGTVTLTCRSSNGAVTSSNYANWVQQKPGQAPRGLIGGTNKRAPGTPARFSGSLLGGKAALTLSGVQPEDEAVYYCALWYPNLWVFGGGTKLTVL
notes: paTCE with PSMA.262; also called AC3640
As for B19, the dissociation constant (Kd) turned out to be 5.6 nM.

B20: CD3.221 (bispecific antibody, V domains shown)
VH: EVQLVESGGGIVQPGGSLRLSCAASGFTFNTYAMNWVRQAPGKGLEWVGRIRTKTNNYATYYADSVKGRFTISRDDSKNTVYLQMNELKTEDTAVYYCVRHENFGNSYVSWFAHWGQGTLVTVSS
VL: ELVVTQEPSLTVSPGGTVTLTCRSSNGAVTSSNYANWVQQKPGQAPRGLIGGTNKRAPGTPARFSGSLLGGKAALTLSGVQPEDEAVYYCALWYPNLWVFGGGTKLTVL
notes: paTCE with PSMA.262; also called AC3652
As for B20, the dissociation constant Kd came out at 11.7 nM.
